Literature values as cited in paper PMC10342495.

Target: IL-18 (Homo sapiens) (UniProt Q14116)
Sequence (Q14116 37-193): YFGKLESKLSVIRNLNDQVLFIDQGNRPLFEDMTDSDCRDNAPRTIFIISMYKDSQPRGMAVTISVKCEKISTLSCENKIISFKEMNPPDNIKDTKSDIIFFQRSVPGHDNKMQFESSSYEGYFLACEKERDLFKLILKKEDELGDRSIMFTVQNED

Sequence of IL-18BP (O95998 31-194): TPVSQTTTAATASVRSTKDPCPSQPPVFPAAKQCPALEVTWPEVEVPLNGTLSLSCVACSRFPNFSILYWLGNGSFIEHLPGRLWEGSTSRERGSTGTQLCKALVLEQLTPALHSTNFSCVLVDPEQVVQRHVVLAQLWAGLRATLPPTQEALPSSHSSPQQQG

IL-18BP (from UniProt O95998)
Kd: 0.4 nM
